# Assay results as given in article PMC4123461 (Experimental eye research, 2014).
# Substitutions are numbered along the chain they refer to. Names and notes keep the numbering of the source.
# T1: Best1-CFP (human, UniProt O76090 1-585)
# T1 sequence (looked up): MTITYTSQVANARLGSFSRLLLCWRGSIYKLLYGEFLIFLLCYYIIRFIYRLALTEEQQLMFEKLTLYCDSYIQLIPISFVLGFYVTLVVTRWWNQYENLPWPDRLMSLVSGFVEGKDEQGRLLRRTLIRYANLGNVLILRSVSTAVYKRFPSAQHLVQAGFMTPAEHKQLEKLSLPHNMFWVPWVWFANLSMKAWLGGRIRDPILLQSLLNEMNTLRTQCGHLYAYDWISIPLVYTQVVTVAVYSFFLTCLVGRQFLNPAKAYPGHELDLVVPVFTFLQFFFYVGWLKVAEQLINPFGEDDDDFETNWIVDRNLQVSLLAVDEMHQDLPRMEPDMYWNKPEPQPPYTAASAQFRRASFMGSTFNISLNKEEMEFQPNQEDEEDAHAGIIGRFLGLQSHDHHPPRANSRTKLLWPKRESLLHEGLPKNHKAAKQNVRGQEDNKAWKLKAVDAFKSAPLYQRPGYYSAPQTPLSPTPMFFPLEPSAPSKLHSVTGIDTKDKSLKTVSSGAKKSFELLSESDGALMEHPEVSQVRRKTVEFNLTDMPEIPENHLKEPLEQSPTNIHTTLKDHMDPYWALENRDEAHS
# B1: WT Best1-YFP (natural protein, human, UniProt O76090 1-585, looked up)
# chain: T1 sequence (looked up)
# B2: A146L Best1-YFP (natural protein, human, UniProt O76090 1-585, looked up)
# chain: T1 sequence (looked up) with A146L
# B3: N179del Best1-YFP (natural protein, human, UniProt O76090 1-585, looked up)
# chain: MTITYTSQVANARLGSFSRLLLCWRGSIYKLLYGEFLIFLLCYYIIRFIYRLALTEEQQLMFEKLTLYCDSYIQLIPISFVLGFYVTLVVTRWWNQYENLPWPDRLMSLVSGFVEGKDEQGRLLRRTLIRYANLGNVLILRSVSTAVYKRFPSAQHLVQAGFMTPAEHKQLEKLSLPHMFWVPWVWFANLSMKAWLGGRIRDPILLQSLLNEMNTLRTQCGHLYAYDWISIPLVYTQVVTVAVYSFFLTCLVGRQFLNPAKAYPGHELDLVVPVFTFLQFFFYVGWLKVAEQLINPFGEDDDDFETNWIVDRNLQVSLLAVDEMHQDLPRMEPDMYWNKPEPQPPYTAASAQFRRASFMGSTFNISLNKEEMEFQPNQEDEEDAHAGIIGRFLGLQSHDHHPPRANSRTKLLWPKRESLLHEGLPKNHKAAKQNVRGQEDNKAWKLKAVDAFKSAPLYQRPGYYSAPQTPLSPTPMFFPLEPSAPSKLHSVTGIDTKDKSLKTVSSGAKKSFELLSESDGALMEHPEVSQVRRKTVEFNLTDMPEIPENHLKEPLEQSPTNIHTTLKDHMDPYWALENRDEAHS
# Molecular target: T1, Best1-CFP
# Assay: FRET or BRET
row,Binder,FRET efficiency (%E) [%]
1,B1,13.6
2,B2,14.8
3,B3,12.4
